One block for each binder: values may come before it.
Assays:
[1] = molecular target: T1, collagenase-3 receptor (170 kDa protein) of mouse embryo fibroblasts MEF-1 and MEF-2 (mouse, UniProt Q64449 31-1479); assay: competition with ^125I mouse collagenase-3 on MEF-2 (LRP null) cells; 200-, 400- and 800-fold excess of competitor
T1 construct: whole, on cells
T1 sequence (looked up): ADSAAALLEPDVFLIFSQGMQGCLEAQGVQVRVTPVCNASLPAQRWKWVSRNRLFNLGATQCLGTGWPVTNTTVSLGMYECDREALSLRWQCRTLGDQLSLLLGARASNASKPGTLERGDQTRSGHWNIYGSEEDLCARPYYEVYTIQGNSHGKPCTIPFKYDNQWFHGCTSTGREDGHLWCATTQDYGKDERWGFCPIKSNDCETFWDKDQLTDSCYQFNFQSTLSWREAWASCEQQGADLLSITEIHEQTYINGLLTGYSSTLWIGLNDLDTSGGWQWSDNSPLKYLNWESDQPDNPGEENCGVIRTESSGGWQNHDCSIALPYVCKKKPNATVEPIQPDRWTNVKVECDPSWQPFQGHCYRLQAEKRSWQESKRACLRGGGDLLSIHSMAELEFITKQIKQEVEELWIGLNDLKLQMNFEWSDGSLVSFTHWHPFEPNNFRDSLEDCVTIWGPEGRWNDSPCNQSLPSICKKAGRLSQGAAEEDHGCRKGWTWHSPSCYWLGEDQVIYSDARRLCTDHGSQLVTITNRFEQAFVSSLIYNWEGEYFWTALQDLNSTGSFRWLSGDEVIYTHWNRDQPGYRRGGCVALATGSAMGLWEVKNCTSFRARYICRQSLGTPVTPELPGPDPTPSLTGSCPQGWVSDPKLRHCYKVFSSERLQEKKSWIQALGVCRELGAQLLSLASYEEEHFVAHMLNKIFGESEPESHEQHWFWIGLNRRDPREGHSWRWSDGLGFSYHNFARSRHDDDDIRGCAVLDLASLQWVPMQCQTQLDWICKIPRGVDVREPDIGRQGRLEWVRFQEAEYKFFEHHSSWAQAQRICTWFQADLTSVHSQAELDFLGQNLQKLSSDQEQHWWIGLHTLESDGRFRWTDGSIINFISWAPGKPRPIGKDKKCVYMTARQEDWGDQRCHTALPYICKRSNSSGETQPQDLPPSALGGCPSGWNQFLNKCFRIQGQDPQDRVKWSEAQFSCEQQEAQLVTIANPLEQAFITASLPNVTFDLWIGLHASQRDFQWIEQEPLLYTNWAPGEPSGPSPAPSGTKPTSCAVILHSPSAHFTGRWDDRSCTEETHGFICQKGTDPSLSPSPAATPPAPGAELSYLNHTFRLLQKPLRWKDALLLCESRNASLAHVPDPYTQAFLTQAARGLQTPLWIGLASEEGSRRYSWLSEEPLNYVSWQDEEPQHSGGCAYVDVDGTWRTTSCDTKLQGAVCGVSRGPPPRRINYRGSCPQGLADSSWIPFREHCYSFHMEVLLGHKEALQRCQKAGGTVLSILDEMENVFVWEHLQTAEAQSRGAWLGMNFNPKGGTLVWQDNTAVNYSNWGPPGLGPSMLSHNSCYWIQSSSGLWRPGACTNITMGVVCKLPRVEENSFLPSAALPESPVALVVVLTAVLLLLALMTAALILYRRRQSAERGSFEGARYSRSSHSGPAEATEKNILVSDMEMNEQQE
Source text: This sequence corresponds to a published low density lipoprotein receptor-related protein consensus binding sequence.

[2] = molecular target: T2, rat collagenase-3 receptor (170 kDa protein) of UMR 106-01 rat osteosarcoma cells and other rat cells (rat); assay: from the Scatchard analysis on UMR 106-01 cells
T2 construct: whole, on cells; on blotted cell membranes in the ligand blots; also called collagenase receptor; rat collagenase receptor

[3] = molecular target: T3, low density lipoprotein receptor-related protein of rat cells (UMR 106-01, normal rat osteoblasts) (rat); assay: Scatchard analysis of ^125I-mMMP-13 binding to UMR106-01 cells; lower affinity site (ostensibly the low density lipoprotein receptor-related protein)
T3 construct: whole, on cells; On blotted membranes in ligand and Western blots; also called LRP; 600 kDa protein

[4] = molecular target: T3, low density lipoprotein …; assay: computer analysis of ^125I-mMMP-13 binding to UMR106-01 cells; lower affinity site
[5] = molecular target: T2, rat collagenase-3 receptor (170 kDa …); assay: Scatchard analysis of ^125I-mMMP-13 binding to UMR106-01 cells; high affinity site (ostensibly the collagenase-3 receptor)

T3 sequence (G3V928 20-3944): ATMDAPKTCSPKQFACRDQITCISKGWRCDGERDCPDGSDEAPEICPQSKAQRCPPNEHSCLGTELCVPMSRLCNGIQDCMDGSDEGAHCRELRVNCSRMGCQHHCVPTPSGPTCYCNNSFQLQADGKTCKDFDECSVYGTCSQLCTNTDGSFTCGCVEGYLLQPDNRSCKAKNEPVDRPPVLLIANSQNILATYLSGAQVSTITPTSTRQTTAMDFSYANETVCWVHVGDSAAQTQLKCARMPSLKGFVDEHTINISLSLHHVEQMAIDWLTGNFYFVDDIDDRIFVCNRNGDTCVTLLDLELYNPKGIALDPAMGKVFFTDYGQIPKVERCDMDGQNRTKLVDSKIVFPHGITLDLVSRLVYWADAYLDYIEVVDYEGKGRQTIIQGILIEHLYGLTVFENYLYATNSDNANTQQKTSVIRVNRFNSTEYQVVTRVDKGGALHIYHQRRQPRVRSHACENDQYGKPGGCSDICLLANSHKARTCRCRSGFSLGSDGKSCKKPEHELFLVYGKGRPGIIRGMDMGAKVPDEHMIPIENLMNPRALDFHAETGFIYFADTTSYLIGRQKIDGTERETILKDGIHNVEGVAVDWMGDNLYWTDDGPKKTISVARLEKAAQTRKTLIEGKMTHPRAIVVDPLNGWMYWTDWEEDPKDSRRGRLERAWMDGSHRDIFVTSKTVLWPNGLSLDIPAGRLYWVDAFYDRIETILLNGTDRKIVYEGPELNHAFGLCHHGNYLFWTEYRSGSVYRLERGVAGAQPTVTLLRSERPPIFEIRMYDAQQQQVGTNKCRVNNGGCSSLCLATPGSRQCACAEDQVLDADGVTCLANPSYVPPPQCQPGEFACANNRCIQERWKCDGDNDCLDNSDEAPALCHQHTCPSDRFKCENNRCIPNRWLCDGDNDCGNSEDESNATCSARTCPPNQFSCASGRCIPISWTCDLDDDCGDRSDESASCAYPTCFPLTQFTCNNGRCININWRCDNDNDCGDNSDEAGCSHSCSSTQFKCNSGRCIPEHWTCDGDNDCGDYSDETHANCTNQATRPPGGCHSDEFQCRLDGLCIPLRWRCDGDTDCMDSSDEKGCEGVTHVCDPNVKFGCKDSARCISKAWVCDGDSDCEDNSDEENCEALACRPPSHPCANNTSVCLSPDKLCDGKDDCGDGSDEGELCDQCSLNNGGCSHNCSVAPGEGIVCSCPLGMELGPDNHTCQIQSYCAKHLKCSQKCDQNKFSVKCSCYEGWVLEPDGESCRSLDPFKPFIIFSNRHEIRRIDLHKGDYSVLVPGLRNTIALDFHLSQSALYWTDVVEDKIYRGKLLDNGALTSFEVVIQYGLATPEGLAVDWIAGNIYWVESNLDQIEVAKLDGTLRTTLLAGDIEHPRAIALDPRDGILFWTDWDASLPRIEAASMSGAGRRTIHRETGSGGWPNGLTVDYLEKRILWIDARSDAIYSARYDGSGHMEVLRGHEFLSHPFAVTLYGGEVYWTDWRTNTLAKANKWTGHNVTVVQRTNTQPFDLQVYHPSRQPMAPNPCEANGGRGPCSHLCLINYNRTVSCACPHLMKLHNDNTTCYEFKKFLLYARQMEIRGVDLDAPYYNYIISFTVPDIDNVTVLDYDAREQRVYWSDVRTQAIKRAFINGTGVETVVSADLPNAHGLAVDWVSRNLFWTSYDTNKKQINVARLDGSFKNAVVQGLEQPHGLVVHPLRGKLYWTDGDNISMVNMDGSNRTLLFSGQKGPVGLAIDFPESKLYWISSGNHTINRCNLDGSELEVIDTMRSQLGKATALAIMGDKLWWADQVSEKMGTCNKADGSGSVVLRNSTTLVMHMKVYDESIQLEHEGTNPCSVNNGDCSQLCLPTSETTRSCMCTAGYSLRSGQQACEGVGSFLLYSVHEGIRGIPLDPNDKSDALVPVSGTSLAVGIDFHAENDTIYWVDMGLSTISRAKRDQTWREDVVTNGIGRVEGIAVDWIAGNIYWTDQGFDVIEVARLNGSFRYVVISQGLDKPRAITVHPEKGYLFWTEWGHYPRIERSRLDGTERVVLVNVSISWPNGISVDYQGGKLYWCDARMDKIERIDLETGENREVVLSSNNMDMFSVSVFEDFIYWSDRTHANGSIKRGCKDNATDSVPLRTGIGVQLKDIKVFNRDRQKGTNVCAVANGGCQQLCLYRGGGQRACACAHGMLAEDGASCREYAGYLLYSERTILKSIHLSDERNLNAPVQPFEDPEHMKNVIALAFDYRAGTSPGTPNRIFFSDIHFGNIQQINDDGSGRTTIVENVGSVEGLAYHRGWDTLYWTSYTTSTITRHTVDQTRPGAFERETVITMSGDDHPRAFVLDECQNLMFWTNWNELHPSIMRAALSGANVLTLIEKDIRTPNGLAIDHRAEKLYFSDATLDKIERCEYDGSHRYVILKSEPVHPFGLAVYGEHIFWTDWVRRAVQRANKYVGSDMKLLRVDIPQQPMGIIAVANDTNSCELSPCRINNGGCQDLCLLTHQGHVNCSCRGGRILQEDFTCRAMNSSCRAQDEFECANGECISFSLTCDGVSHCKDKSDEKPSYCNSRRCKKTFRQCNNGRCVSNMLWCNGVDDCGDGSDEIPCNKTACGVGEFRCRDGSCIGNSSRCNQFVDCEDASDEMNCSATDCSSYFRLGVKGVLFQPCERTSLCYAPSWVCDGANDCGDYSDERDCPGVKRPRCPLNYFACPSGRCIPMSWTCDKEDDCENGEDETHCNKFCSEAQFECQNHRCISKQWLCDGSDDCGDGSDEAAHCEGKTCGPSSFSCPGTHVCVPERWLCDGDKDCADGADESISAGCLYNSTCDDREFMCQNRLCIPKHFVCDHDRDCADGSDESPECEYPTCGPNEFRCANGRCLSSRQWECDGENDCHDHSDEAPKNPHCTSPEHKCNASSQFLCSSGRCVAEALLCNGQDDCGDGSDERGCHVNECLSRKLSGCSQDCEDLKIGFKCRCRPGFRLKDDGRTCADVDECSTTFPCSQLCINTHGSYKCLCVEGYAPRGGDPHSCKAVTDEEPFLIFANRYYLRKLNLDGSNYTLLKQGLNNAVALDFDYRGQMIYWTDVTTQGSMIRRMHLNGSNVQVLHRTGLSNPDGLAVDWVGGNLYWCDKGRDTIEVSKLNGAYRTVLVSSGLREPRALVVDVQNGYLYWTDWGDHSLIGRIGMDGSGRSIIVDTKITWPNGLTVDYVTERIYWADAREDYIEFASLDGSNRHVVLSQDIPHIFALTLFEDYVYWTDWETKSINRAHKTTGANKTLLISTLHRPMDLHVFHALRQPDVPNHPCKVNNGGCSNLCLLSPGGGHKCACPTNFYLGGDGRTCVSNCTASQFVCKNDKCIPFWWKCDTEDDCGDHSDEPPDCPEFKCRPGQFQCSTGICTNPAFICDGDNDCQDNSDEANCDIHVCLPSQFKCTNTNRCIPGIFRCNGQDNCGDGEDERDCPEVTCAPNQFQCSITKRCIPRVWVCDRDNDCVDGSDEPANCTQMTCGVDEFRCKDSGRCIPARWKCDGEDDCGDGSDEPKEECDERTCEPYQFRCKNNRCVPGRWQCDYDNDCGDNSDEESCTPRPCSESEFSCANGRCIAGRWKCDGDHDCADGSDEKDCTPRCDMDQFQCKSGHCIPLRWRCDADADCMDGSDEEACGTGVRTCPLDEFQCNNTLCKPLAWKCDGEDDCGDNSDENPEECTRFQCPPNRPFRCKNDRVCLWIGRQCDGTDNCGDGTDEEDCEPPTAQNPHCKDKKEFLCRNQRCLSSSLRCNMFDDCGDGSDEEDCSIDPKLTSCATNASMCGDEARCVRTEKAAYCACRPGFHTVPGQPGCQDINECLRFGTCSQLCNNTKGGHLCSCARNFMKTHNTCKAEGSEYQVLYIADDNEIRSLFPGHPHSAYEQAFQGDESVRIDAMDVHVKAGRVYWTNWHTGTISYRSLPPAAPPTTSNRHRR

B2: C-terminally truncated mouse collagenase-3, M(1-265) (enzyme)
chain: not shown
notes: range 1-265; also called MMP-13 (1-265); truncated MMP-13; not shown: N-terminal 6×His purification tag of pET30
percent of mouse collagenase-3 binding [1]: 99.4%

B4: H/M(229-472) chimeric collagenase (enzyme)
chain: not shown
notes: 62 kDa; not shown: N-terminal 6×His purification tag of pET30
percent of mouse collagenase-3 binding [1]: 0%

Now from value to binder:

percent of mouse collagenase-3 binding [1]: 100%
fold higher affinity compared to the low density lipoprotein receptor-related protein [2]: ~10 fold
Kd [3]: 46.2 nM
Kd [4]: 52.8 nM
Kd [5]: 3.9 nM
B1: recombinant mouse collagenase-3 (mMMP-13, residues 1-472) (enzyme)
chain: not shown
modifications: ^125I-labeled where used as tracer
notes: not shown: N-terminal 6×His purification tag of pET30

percent of mouse collagenase-3 binding [1]: 15.3%
B3: HM/M(141-472) chimeric collagenase (enzyme)
chain: not shown
notes: as for B4

Reference: patent US6403637 (dated 2002)
